Test results reported in the supplement of paper PMC9233669.
Variants at the floor of the assay were thinned out.

Legend:
biotinyl-Trp-oxazolone = experiment: self-aminoacylation, catalytic enhancement (BWO) (fold over background); higher = more active; k-Seq, kA / k0A0; sequences stand for … in GGGAAUGGAUCCACAUCUACGAAUUC…UUCACUGCAGACUUGACGAAGCUG
Method in brief: (§1)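 Catalytic enhancement equals the median kA over the uncatalyzed rate, the latter read from the low-activity peak of a bimodal Gaussian fit. Values of kA came from fitting each sequence's fraction reacted to a pseudo-first-order model, with 1000 bootstraps. Reacted RNA was captured with streptavidin and quantified by triplicate qPCR and Illumina sequencing after 90 minutes at room temperature with 2–1250 μM biotinyl-aminoacyl-oxazolone and 0.43 μM mutagenized RNA pools bearing a 21-nt variable region.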

biotinyl-Phe-oxazolone = experiment: self-aminoacylation, catalytic enhancement (BFO) (fold over background); higher = more active; k-Seq, kA / k0A0; sequences stand for … in GGGAAUGGAUCCACAUCUACGAAUUC…UUCACUGCAGACUUGACGAAGCUG
Method in brief: as §1

biotinyl-Met-oxazolone = experiment: self-aminoacylation, catalytic enhancement (BMO) (fold over background); higher = more active; k-Seq, kA / k0A0; sequences stand for … in GGGAAUGGAUCCACAUCUACGAAUUC…UUCACUGCAGACUUGACGAAGCUG
Method in brief: as §1

biotinyl-Ile-oxazolone = experiment: self-aminoacylation, catalytic enhancement (BIO) (fold over background); higher = more active; k-Seq, kA / k0A0; sequences stand for … in GGGAAUGGAUCCACAUCUACGAAUUC…UUCACUGCAGACUUGACGAAGCUG
Method in brief: as §1

biotinyl-Leu-oxazolone = experiment: self-aminoacylation, catalytic enhancement (BLO) (fold over background); higher = more active; k-Seq, kA / k0A0; sequences stand for … in GGGAAUGGAUCCACAUCUACGAAUUC…UUCACUGCAGACUUGACGAAGCUG
Method in brief: as §1

biotinyl-Val-oxazolone = experiment: self-aminoacylation, catalytic enhancement (BVO) (fold over background); higher = more active; k-Seq, kA / k0A0; sequences stand for … in GGGAAUGGAUCCACAUCUACGAAUUC…UUCACUGCAGACUUGACGAAGCUG
Method in brief: as §1

| Sequence | self-aminoacylation (biotinyl-Trp-oxazolone) | self-aminoacylation (biotinyl-Phe-oxazolone) | self-aminoacylation (biotinyl-Met-oxazolone) | self-aminoacylation (biotinyl-Ile-oxazolone) | self-aminoacylation (biotinyl-Leu-oxazolone) | self-aminoacylation (biotinyl-Val-oxazolone) |
| --- | --- | --- | --- | --- | --- | --- |
| CUACUGCAAACAAUGGGUCUG [Fam1A.1 aminoacylation ribozyme variant] | 1.12 | 1.5 | 1.2 | 1.25 | 1.13 | 1.08 |
| CUACUGCAACCAAUCGGUCUG [Fam1A.1 aminoacylation ribozyme variant] | 0.608 | 0.691 | 0.585 | 0.53 | 0.495 | 0.567 |
| CUACUGCUAACAAUCGGUCUG [Fam1A.1 aminoacylation ribozyme variant] | 0.418 | 0.437 | 0.491 | 0.538 | 0.597 | 0.559 |
| CUACUUAAAACAAUAGGUCUG [Fam1A.1 aminoacylation ribozyme variant] | 0.747 | 0.984 | 1.15 | 0.928 | 0.893 | 0.934 |
| CUACUUAAAACAAUCCGUCUG [Fam1A.1 aminoacylation ribozyme variant] | 0.547 | 0.461 | 0.876 | 0.799 | 0.756 | 0.905 |
| CUACUUAAAACAAUCGGGCUG [Fam1A.1 aminoacylation ribozyme variant] | 0.924 | 0.623 | 1.05 | 1.31 | 0.999 | 1.02 |
| CUACUUAAAACACUCGGUCUG [Fam1A.1 aminoacylation ribozyme variant] | 0.762 | 0.731 | 0.758 | 0.992 | 0.882 | 0.792 |
| CUACUUAAAACCAUCGGUCUG [Fam1A.1 aminoacylation ribozyme variant] | 1.36 | 1.22 | 1.1 | 0.927 | 0.846 | 0.923 |
| CUACUUAAACCAAUCGGUCUG [Fam1A.1 aminoacylation ribozyme variant] | 0.473 | 0.538 | 0.693 | 0.88 | 0.594 | 0.67 |
| CUACUUAAUACAAUCGGUCUG [Fam1A.1 aminoacylation ribozyme variant] | 0.631 | 0.835 | 0.89 | 0.782 | 0.761 | 0.849 |
| CUACUUCAAAAAAUCGGUCAG [Fam1A.1 aminoacylation ribozyme variant] | 1.82 | 3.51 | 0.722 | 0.845 | 0.653 | 0.613 |
| CUACUUCAAAAAAUCGGUUUG [Fam1A.1 aminoacylation ribozyme variant] | 6.33 | 9.83 | 0.73 | 1.03 | 0.84 | 0.695 |
| CUACUUCAAAAAUUCGGUCUG [Fam1A.1 aminoacylation ribozyme variant] | 1.12 | 3.5 | 1.37 | 1.44 | 1.65 | 1.45 |
| CUACUUCAAACAAAAGGUCUG [Fam1A.1 aminoacylation ribozyme variant] | 0.592 | 0.784 | 0.624 | 0.822 | 0.618 | 0.946 |
| CUACUUCAAACAAACGUUCUG [Fam1A.1 aminoacylation ribozyme variant] | 0.591 | 0.686 | 0.529 | 0.591 | 0.579 | 0.622 |
| CUACUUCAAACAAAGGGUCUG [Fam1A.1 aminoacylation ribozyme variant] | 0.669 | 0.589 | 0.763 | 0.756 | 0.567 | 0.724 |
| CUACUUCAAACAACGGGUCUG [Fam1A.1 aminoacylation ribozyme variant] | 0.697 | 0.618 | 0.716 | 0.937 | 0.627 | 0.904 |
| CUACUUCAAACAAGCGGUCUA [Fam1A.1 aminoacylation ribozyme variant] | 0.669 | 0.85 | 0.838 | 0.936 | 0.73 | 0.707 |
| CUACUUCAAACAAUAGGUCAG [Fam1A.1 aminoacylation ribozyme variant] | 0.568 | 1.19 | 0.602 | 0.688 | 0.577 | 0.812 |
| CUACUUCAAACAAUAGGUCGG [Fam1A.1 aminoacylation ribozyme variant] | 0.676 | 0.7 | 0.643 | 0.792 | 0.754 | 0.693 |
| CUACUUCAAACAAUAGGUCUA [Fam1A.1 aminoacylation ribozyme variant] | 0.756 | 0.832 | 0.699 | 0.755 | 0.639 | 0.776 |

| Sequence | self-aminoacylation (biotinyl-Trp-oxazolone) | self-aminoacylation (biotinyl-Phe-oxazolone) | self-aminoacylation (biotinyl-Met-oxazolone) | self-aminoacylation (biotinyl-Ile-oxazolone) | self-aminoacylation (biotinyl-Leu-oxazolone) | self-aminoacylation (biotinyl-Val-oxazolone) |
| --- | --- | --- | --- | --- | --- | --- |
| CUACUUCAAACAAUAGGUCUG [Fam1A.1 aminoacylation ribozyme variant] | 0.617 | 1.11 | 0.696 | 0.813 | 0.681 | 0.817 |
| CUACUUCAAACAAUCCAUCUG [Fam1A.1 aminoacylation ribozyme variant] | 0.402 | 1.08 | 0.489 | 0.656 | 0.546 | 0.748 |
| CUACUUCAAACAAUCCGGCUG [Fam1A.1 aminoacylation ribozyme variant] | 0.952 | 1.01 | 1.4 | 1.5 | 1.44 | 1.78 |
| CUACUUCAAACAAUCCUUCUG [Fam1A.1 aminoacylation ribozyme variant] | 0.528 | 1.04 | 0.577 | 0.603 | 0.469 | 0.665 |
| CUACUUCAAACAAUCGAACUG [Fam1A.1 aminoacylation ribozyme variant] | 0.468 | 0.805 | 0.617 | 0.683 | 0.595 | 0.595 |
| CUACUUCAAACAAUCGAGCUG [Fam1A.1 aminoacylation ribozyme variant] | 0.396 | 0.816 | 0.59 | 0.85 | 0.481 | 0.706 |
| CUACUUCAAACAAUCGAUUUG [Fam1A.1 aminoacylation ribozyme variant] | 0.752 | 1.26 | 0.63 | 0.717 | 0.482 | 0.657 |
| CUACUUCAAACAAUCGCCCUG [Fam1A.1 aminoacylation ribozyme variant] | 0.581 | 0.818 | 1.19 | 1.05 | 0.959 | 1.2 |
| CUACUUCAAACAAUCGCUCAG [Fam1A.1 aminoacylation ribozyme variant] | 0.671 | 1 | 0.679 | 0.884 | 0.52 | 0.689 |
| CUACUUCAAACAAUCGGACUA [Fam1A.1 aminoacylation ribozyme variant] | 0.655 | 1.13 | 0.579 | 0.831 | 0.617 | 0.744 |
| CUACUUCAAACAAUCGGAUUG [Fam1A.1 aminoacylation ribozyme variant] | 1.3 | 2.03 | 0.953 | 0.999 | 0.719 | 0.89 |
| CUACUUCAAACAAUCGGCCAG [Fam1A.1 aminoacylation ribozyme variant] | 0.954 | 1.84 | 1.02 | 1.44 | 1.19 | 1.36 |
| CUACUUCAAACAAUCGGCCUC [Fam1A.1 aminoacylation ribozyme variant] | 7.78 | 11.8 | 1.63 | 1.8 | 1.89 | 1.88 |
| CUACUUCAAACAAUCGGCGUG [Fam1A.1 aminoacylation ribozyme variant] | 5.22 | 6.45 | 4.44 | 3.35 | 6.1 | 3.12 |
| CUACUUCAAACAAUCGGUAAG [Fam1A.1 aminoacylation ribozyme variant] | 0.835 | 1.29 | 0.454 | 0.516 | 0.448 | 0.662 |
| CUACUUCAAACAAUCGGUAUG [Fam1A.1 aminoacylation ribozyme variant] | 10.1 | 21.5 | 0.789 | 0.788 | 0.995 | 0.799 |
| CUACUUCAAACAAUCGGUCCG [Fam1A.1 aminoacylation ribozyme variant] | 5.32 | 8.83 | 0.745 | 0.711 | 0.862 | 0.749 |
| CUACUUCAAACAAUCGGUGGG [Fam1A.1 aminoacylation ribozyme variant] | 0.856 | 1.14 | 0.811 | 0.934 | 0.878 | 0.816 |
| CUACUUCAAACAAUCGGUUGG [Fam1A.1 aminoacylation ribozyme variant] | 1.82 | 3.55 | 0.619 | 0.843 | 0.788 | 0.812 |
| CUACUUCAAACAAUCGGUUUU [Fam1A.1 aminoacylation ribozyme variant] | 1.44 | 2.35 | 0.931 | 1.31 | 1.1 | 1.26 |
| CUACUUCAAACAAUCGUUCGG [Fam1A.1 aminoacylation ribozyme variant] | 0.473 | 0.675 | 0.641 | 0.787 | 0.637 | 0.623 |
